Test results from publication PMC3629940, “Exploring the structure and function of Thermotoga maritima CorA reveals the mechanism of gating and ion selectivity in Co^2+/Mg^2+ transport” (Biochemical Journal, 2013).
Where a chain is given by its changes, count along the chain named. Names may count otherwise.

B1: Thermotoga maritima CorA N288L mutant (natural protein)
chain: MEEKRLSAKKGLPPGTLVYTGKYREDFEIEVMNYSIEEFREFKTTDVESVLPFRDSSTPTWINITGIHRTDVVQRVGEFFGIHPLVLEDILNVHQRPKVEFFENYVFIVLKMFTYDKNLHELESEQVSLILTKNCVLMFQEKIGDVFDPVRERIRYNRGIIRKKRADYLLYSLIDALVDDYFVLLEKIDDEIDVLEEEVLERPEKETVQRTHQLKRNLVELRKTIWPLREVLSSLYRDVPPLIEKETVPYFRDVYDHTIQIADTVETFRDIVSGLLDVYLSSVSNKTLEVMKVLTIIATIFMPLTFIAGIYGMNFEYMPELRWKWGYPVVLAVMGVIAVIMVVYFKKKKWL
notes: CorA of Thermotoga maritima with N288L; source: E. coli, overexpressed, purified (1% DDM solubilisation, Ni-NTA, TEV cleavage, Superdex 200)
B2: Thermotoga maritima CorA T299L mutant (natural protein)
chain: B1 chain with L288N, T299L
notes: CorA of Thermotoga maritima with T299L; source: E. coli, overexpressed, purified (1% DDM solubilisation, Ni-NTA, TEV cleavage, Superdex 200)
B3: Thermotoga maritima CorA T295L mutant (natural protein)
chain: B1 chain with L288N, T295L
notes: CorA of Thermotoga maritima with T295L; source: E. coli, overexpressed, purified (1% DDM solubilisation, Ni-NTA, TEV cleavage, Superdex 200)

Target: the molecule itself
Experiment: SEC; size-exclusion chromatography of the mutants to verify channel intactness (Supplementary Figure S2); conditions of this run not told

Row | Protein | binding result
1 | B1 | binds
2 | B2 | binds
3 | B3 | binds
